{"source": "paper PMC2968749", "about": "(Journal of immunology (Baltimore, Md. : 1950), 2009)", "target": "the molecule itself", "test": "nonreducing SDS-PAGE + mass spectrometry of the band", "data": [{"protein": "native Bet v 1d in aqueous birch pollen extract (BPE) (natural protein, UniProt P43177 1-160, looked up) MGVFNYEIETTSVIPAARLFKAFILDGDNLVPKVAPQAISSVENIEGNGGPGTIKKINFPEGFPFKYVKDRVDEVDHTNFKYNYSVIEGGPVGDTLEKISNEIKIVATPDGGCVLKISNKYHTKGNHEVKAEQVKASKEMGETLLRAVESYLLAHSDAYN", "values": [{"measurement": "stoichiometry N", "result": 2}]}]}
